Where “and” joins values, the source holds several entries; their conditions need not be identical. Equal entries are not always repeated.
What was measured:
[1] = target: Recombinant human MASP-2 (specificity ELISA, Example 14) (human, UniProt O00187 16-686, limits assumed); assay: solid phase ELISA, immobilized protease, apparent KD by 4-parameter logistic fit
From the text: (§1) The apparent dissociation constant (KD) was estimated by nonlinear regression using a 4-parameter logistic model.
(§2) Fold selectivity calculated as KD(related serine protease)/mean KD(MASP-2).

[2] = target: T1, CFD (human, UniProt P00746 26-253, limits assumed); assay: solid phase ELISA, against human MASP-2 as reference
T1 construct: Species read from 'Recombinant human MASP-2 or C1r, C1s, CFD, MASP-1 and MASP-3'; also called factor D; complement factor D
From the text: as §1, §2

[3] = target: T2, C1s (human, UniProt P09871 16-688, limits assumed); assay: as above
T2 construct: Species read from 'Recombinant human MASP-2 or C1r, C1s, CFD, MASP-1 and MASP-3'
T2 sequence (looked up): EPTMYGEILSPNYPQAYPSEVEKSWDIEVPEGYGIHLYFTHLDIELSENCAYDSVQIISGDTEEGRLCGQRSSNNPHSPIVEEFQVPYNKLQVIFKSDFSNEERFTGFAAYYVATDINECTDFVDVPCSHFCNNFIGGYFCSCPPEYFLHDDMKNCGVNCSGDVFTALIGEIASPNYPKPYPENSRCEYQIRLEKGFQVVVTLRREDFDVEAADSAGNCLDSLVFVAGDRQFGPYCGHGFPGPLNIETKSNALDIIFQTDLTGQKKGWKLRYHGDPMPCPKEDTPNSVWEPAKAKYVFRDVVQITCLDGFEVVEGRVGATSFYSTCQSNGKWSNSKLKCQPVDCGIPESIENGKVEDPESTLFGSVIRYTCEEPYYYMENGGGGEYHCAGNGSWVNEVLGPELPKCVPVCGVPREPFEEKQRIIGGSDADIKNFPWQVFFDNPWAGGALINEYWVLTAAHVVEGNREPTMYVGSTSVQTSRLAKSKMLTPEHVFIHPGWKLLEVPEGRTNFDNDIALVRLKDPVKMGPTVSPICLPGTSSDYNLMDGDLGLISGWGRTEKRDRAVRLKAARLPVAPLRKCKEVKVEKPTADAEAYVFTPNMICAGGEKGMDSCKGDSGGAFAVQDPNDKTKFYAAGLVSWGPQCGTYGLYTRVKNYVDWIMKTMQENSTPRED
From the text: as §1, §2

Recombinant human MASP-2 (specificity ELISA, Example 14), sequence (O00187 16-686 limits assumed): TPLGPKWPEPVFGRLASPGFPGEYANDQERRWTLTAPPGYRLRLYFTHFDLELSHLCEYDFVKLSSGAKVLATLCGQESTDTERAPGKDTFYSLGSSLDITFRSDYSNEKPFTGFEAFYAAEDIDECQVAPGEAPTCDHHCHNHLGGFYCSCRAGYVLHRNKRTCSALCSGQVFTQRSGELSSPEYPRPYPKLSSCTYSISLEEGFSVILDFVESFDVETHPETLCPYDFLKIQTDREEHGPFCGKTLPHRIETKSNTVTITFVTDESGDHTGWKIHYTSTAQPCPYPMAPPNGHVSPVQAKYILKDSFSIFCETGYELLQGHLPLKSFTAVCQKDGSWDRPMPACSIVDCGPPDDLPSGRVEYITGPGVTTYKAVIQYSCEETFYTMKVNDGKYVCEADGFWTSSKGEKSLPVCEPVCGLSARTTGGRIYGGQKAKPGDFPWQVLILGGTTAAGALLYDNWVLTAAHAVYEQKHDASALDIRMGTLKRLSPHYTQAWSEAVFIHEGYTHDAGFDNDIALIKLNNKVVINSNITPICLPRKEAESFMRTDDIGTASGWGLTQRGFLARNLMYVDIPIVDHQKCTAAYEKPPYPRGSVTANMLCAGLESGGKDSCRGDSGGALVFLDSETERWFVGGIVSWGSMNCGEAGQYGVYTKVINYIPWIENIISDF
T1 sequence (P00746 26-253 limits assumed): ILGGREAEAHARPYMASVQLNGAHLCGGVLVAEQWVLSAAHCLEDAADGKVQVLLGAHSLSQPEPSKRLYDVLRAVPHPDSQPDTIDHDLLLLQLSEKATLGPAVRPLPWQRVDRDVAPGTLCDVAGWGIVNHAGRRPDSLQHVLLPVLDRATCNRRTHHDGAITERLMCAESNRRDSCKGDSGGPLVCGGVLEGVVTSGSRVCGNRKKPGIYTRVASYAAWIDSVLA

Kd [1]: 0.042 µg/mL and 0.051 µg/mL
Fold selectivity (KD related serine protease / mean KD MASP-2) [2]: > 2000 fold
Fold selectivity (KD related serine protease / mean KD MASP-2) [3]: > 2000 fold
B1: mAb OMS858 (humanized anti-MASP-2 antibody) (antibody, V domains shown)
VH: QVQLVQSGAEVKKPGASVKVSCKASGYTFTNHHMHWLRQAPGQGLEWIGDIDASDSETHYIEKFKDRATLTIDKSSSTAYMELSSLRSEDTAVYYCARGDITTTLRYFDVWGQGTLVTVSS
VL: DIQLTQSPSSLSASVGDRVTITCSASSSVRYMYWYQQKPGKAPKLLIYDTSNLASGVPSRFSGSGSGTDNTLTISSLQPEDFATYYCQQWSSYPLTFGQGTKVEIKR
notes: also called antibody OMS858; biotinylated OMS858

— US20230265215A1 (OMEROS, published 2023)
